Article PMC12477443, “Structural basis for mTORC1 regulation by the CASTOR1–GATOR2 complex” (Nature Structural & Molecular Biology, 2025)

B1: MIOS (subunit of the recombinant GATOR2 complex) (natural protein, human)
chain: MSGTKPDILWAPHHVDRFVVCDSELSLYHVESTVNSELKAGSLRLSEDSAATLLSINSDTPYMKCVAWYLNYDPECLLAVGQANGRVVLTSLGQDHNSKFKDLIGKEFVPKHARQCNTLAWNPLDSNWLAAGLDKHRADFSVLIWDICSKYTPDIVPMEKVKLSAGETETTLLVTKPLYELGQNDACLSLCWLPRDQKLLLAGMHRNLAIFDLRNTSQKMFVNTKAVQGVTVDPYFHDRVASFYEGQVAIWDLRKFEKPVLTLTEQPKPLTKVAWCPTRTGLLATLTRDSNIIRLYDMQHTPTPIGDETEPTIIERSVQPCDNYIASFAWHPTSQNRMIVVTPNRTMSDFTVFERISLAWSPITSLMWACGRHLYECTEEENDNSLEKDIATKMRLRALSRYGLDTEQVWRNHILAGNEDPQLKSLWYTLHFMKQYTEDMDQKSPGNKGSLVYAGIKSIVKSSLGMVESSRHNWSGLDKQSDIQNLNEERILALQLCGWIKKGTDVDVGPFLNSLVQEGEWERAAAVALFNLDIRRAIQILNEGASSEKGDLNLNVVAMALSGYTDEKNSLWREMCSTLRLQLNNPYLCVMFAFLTSETGSYDGVLYENKVAVRDRVAFACKFLSDTQLNRYIEKLTNEMKEAGNLEGILLTGLTKDGVDLMESYVDRTGDVQTASYCMLQGSPLDVLKDERVQYWIENYRNLLDAWRFWHKRAEFDIHRSKLDPSSKPLAQVFVSCNFCGKSISYSCSAVPHQGRGFSQYGVSGSPTKSKVTSCPGCRKPLPRCALCLINMGTPVSSCPGGTKSDEKVDLSKDKKLAQFNNWFTWCHNCRHGGHAGHMLSWFRDHAECPVSACTCKCMQLDTTGNLVPAETVQP
notes: MIOS, subunit of human GATOR2; codon-optimized DNA in pCAG; The MIOS chain of m1, for the pairs of subunits that touch in the structure

Legend:
[1] = molecular target: T1, WDR59 (subunit of the recombinant GATOR2 complex) (human, UniProt Q6PJI9 1-974); test: cryo-EM structure; purified GATOR2 at 0.45 mg/ml with a threefold molar excess of CASTOR1^apo, 45 min on ice, no arginine; Titan Krios; settings: both partners purified
T1 construct: WDR59, subunit of human GATOR2; codon-optimized DNA in pCAG; The WDR59 chain of m1
T1 sequence: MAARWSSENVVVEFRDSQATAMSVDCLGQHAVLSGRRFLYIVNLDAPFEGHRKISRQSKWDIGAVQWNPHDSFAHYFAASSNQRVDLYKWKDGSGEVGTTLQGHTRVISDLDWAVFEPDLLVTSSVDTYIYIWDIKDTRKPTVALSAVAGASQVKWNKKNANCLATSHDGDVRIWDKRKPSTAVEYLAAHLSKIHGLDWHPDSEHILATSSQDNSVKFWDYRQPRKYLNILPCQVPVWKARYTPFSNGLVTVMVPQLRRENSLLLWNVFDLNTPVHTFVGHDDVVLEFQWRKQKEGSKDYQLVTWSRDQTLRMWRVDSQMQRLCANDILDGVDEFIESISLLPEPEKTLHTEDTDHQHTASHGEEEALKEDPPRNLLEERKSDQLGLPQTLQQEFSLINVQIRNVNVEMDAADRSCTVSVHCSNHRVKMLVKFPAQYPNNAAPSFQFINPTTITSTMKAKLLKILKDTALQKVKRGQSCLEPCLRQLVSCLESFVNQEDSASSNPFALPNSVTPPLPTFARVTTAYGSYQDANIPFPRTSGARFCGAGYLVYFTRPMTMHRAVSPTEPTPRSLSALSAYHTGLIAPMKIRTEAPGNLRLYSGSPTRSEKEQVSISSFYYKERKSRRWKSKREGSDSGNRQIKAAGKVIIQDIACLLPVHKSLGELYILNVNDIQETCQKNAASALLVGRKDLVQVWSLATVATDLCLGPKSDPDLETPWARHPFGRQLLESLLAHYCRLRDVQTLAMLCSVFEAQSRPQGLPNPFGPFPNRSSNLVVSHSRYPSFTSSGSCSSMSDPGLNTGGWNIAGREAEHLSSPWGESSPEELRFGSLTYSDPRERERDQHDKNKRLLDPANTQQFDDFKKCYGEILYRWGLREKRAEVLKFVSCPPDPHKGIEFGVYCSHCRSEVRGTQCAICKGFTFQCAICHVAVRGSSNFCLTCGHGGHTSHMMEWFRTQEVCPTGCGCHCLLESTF

[2] = molecular target: the molecule itself; test: as above
[3] = molecular target: B1; test: as above; settings: both partners purified
[4] = molecular target: T2, WDR24 (subunit of the recombinant GATOR2 complex) (human, UniProt Q96S15 1-790); test: cryo-EM structure; purified GATOR2 at 0.45 mg/ml with threefold molar excess of CASTOR1^apo, twofold of SESN2^apo and threefold of GATOR1, 45 min on ice; Talos Arctica, 7.77 Å map; settings: both partners purified
T2 construct: WDR24, subunit of human GATOR2; codon-optimized DNA in pCAG; The WDR24 chain of m1
T2 sequence: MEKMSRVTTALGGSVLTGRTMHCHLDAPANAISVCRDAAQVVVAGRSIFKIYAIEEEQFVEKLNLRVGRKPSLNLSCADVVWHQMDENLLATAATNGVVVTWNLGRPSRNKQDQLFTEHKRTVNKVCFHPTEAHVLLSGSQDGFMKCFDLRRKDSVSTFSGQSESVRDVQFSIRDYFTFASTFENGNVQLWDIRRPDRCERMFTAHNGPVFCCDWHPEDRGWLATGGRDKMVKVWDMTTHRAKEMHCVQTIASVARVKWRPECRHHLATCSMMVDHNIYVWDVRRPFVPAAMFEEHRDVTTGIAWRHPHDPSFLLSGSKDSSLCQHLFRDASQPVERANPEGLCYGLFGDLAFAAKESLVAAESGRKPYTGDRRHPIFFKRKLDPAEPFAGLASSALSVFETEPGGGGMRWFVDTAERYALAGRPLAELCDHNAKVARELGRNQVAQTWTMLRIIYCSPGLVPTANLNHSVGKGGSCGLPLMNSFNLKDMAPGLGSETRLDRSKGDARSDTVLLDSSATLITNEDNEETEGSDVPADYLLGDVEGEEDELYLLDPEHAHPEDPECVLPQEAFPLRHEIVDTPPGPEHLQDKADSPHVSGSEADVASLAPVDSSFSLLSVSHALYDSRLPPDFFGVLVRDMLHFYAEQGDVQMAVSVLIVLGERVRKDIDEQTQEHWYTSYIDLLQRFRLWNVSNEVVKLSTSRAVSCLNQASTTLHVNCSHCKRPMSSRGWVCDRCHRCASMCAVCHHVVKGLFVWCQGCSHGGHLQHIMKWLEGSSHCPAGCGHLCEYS

B1
binding result [1]: binds
binding result [2]: binds

B2: CASTOR1(S111A/D304A), apo-locked mutant (natural protein)
chain: MELHILEHRVRVLSVARPGLWLYTHPLIKLLFLPRRSRCKFFSLTETPEDYTLMVDEEGFKELPPSEFLQVAEATWLVLNVSSHSGAAVQAAGVTKIARSVIAPLAEHHVAVLMLSTYQTDFILVREQDLSVVIHTLAQEFDIYREVGGEPVPVTRDDSSNGFPRTQHGPSPTVHPIQSPQNRFCVLTLDPETLPAIATTLIDVLFYSHSTPKEAASSSPEPSSITFFAFSLIEGYISIVMDAETQKKFPSDLLLTSSSGELWRMVRIGGQPLGFDECGIVAQIAGPLAAADISAYYISTFNFAHALVPEDGIGSVIEVLQRRQEGLAS
notes: CASTOR1, arginine sensor; codon-optimized DNA in pET-28a+; Homodimer in the structure; also called CASTOR1^apo; 6×His–CASTOR1^apo; source: E. coli BL21(DE3), purified (Ni-NTA, Superdex 200 gel filtration)
binding result [3]: binds
stoichiometry N [2]: 2

B3: SESN2(E451Q/R390A/W444E), apo-locked mutant (natural protein, UniProt P58004 1-480, looked up)
chain: MIVADSECRAELKDYLRFAPGGVGDSGPGEEQRESRARRGPRGPSAFIPVEEVLREGAESLEQHLGLEALMSSGRVDNLAVVMGLHPDYFTSFWRLHYLLLHTDGPLASSWRHYIAIMAAARHQCSYLVGSHMAEFLQTGGDPEWLLGLHRAPEKLRKLSEINKLLAHRPWLITKEHIQALLKTGEHTWSLAELIQALVLLTHCHSLSSFVFGCGILPEGDADGSPAPQAPTPPSEQSSPPSRDPLNNSGGFESARDVEALMERMQQLQESLLRDEGTSQEEMESRFELEKSESLLVTPSADILEPSPHPDMLCFVEDPTFGYEDFTRRGAQAPPTFRAQDYTWEDHGYSLIQRLYPEGGQLLDEKFQAAYSLTYNTIAMHSGVDTSVLARAIWNYIHCVFGIRYDDYDYGEVNQLLERNLKVYIKTVACYPEKTTRRMYNLFERHFRHSQKVHVNLLLLEARMQAALLYALRAITRYMT
notes: sestrin2 (SESN2), leucine sensor; codon-optimized DNA in pET-28a+; also called SESN2^apo; 6×His–SESN2^apo; source: E. coli BL21(DE3), purified (Ni-NTA, SP cation-exchange flowthrough, Superdex 200 gel filtration)
binding result [4]: binds
